target: human EPOR on cells (293T/EPOR cells; UT-7 cells) (human) (UniProt P19235); test: cell-based or functional assay
Sequence (P19235 25-508): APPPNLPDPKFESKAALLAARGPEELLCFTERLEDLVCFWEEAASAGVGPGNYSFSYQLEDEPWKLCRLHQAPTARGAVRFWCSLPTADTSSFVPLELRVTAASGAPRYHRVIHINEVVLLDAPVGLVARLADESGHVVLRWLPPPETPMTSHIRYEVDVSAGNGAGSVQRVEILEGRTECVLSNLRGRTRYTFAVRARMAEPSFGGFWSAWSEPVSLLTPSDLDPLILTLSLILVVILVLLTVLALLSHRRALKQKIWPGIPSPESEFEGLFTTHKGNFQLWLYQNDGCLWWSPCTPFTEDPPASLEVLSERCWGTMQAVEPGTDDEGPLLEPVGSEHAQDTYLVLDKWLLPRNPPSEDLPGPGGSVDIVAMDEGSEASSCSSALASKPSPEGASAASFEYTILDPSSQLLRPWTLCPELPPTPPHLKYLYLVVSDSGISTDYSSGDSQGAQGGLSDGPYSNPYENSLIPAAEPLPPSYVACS

EPO-mediated Stat5 Phosphorylation in 293T/EPOR, Elisa [%]	Substance
100	IME013 (EPO-Fc, Q65A) (from UniProt P01588 28-193) (Fc fusion)
82	IME014 (EPO-Fc, E72R) (from UniProt P01588 28-193) (Fc fusion)
13	IME009 (EPO-Fc, K45D/R103A) (from UniProt P01588 28-193) (Fc fusion)
27	IME015 (EPO-Fc, R76E) (from UniProt P01588 28-193) (Fc fusion)
5	IME011 (EPO-Fc, R150E/R103A) (from UniProt P01588 28-193) (Fc fusion)
30	IME008 (EPO-Fc, R103A) (from UniProt P01588 28-193) (Fc fusion)
105	IME045 (EPO-HSA, Q65A/E72R/N83A) (from UniProt P01588 28-193)
0	IME043 (EPO-HSA, R103A) (from UniProt P01588 28-193)
90	IME046 (EPO-HSA, K20A/K45A/K52A) (from UniProt P01588 28-193)
5	IME010 (EPO-Fc, N147K/R103A) (from UniProt P01588 28-193) (Fc fusion)
0	IME030 (HSA-HBP, helix B peptide fused to albumin)
23	IME047 (EPO-HSA, K140A/K152A) (from UniProt P01588 28-193)
37	IME006 (EPO-Fc, N147K) (from UniProt P01588 28-193) (Fc fusion)
86	IME005 (EPO-Fc, K45D) (from UniProt P01588 28-193) (Fc fusion)
75	IME033 (EPO-Fc, E72A) (from UniProt P01588 28-193) (Fc fusion)
4	IME012 (EPO-Fc, E62R) (from UniProt P01588 28-193) (Fc fusion)
5	IME034 (EPO-Fc, R76A) (from UniProt P01588 28-193) (Fc fusion)
11	IME048 (EPO-HSA, K140A/K152A/K154A) (from UniProt P01588 28-193)
32	IME039 (EPO-Fc, L80A) (from UniProt P01588 28-193) (Fc fusion)
27	IME007 (EPO-Fc, R150E) (from UniProt P01588 28-193) (Fc fusion)
0	IME031 (HSA-HBSP, helix B surface peptide fused to albumin)
71	IME037 (EPO-Fc, Q58A) (from UniProt P01588 28-193) (Fc fusion)
57	IME038 (EPO-Fc, L69A) (from UniProt P01588 28-193) (Fc fusion)
2	IME032 (EPO-Fc, E62A) (from UniProt P01588 28-193) (Fc fusion)
15	IME049 (EPO-HSA, K20A/K45A/K52A/K140A/K152A/K154A) (from UniProt P01588 28-193)
94	IME044 (EPO-HSA, Q65A/E72R) (from UniProt P01588 28-193)

From patent US20250129170A1
